The text below walks through data of article PMC3136439, “Auxin Response Factor2 (ARF2) and Its Regulated Homeodomain Gene HB33 Mediate Abscisic Acid Response in Arabidopsis”.

The target in the data set is T1, GST-ARF2 N-terminus (ARF2-N1-470, DNA-binding domain) (Arabidopsis thaliana, UniProt Q94JM3 1-470).
T1 sequence: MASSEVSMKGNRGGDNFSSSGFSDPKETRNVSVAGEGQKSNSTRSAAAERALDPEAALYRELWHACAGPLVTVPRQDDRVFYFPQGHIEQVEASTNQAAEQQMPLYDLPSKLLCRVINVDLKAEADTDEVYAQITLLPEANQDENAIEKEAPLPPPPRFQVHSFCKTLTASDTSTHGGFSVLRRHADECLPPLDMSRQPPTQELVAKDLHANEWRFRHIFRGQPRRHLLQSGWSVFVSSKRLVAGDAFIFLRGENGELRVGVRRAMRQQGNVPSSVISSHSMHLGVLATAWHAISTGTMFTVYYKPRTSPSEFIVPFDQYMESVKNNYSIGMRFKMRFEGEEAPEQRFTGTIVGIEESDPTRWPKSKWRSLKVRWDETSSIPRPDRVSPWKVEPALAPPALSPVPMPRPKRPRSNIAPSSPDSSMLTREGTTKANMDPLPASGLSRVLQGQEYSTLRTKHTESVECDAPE
As to the kind of experiment: EMSA; poly(dI-dC); EMSA: 5x buffer 50 mM HEPES-KOH pH 7.5, 375 mM KCl, 6.25 mM MgCl (so in the source), 1 mM DTT, 0.5 ug/mL BSA, 25% glycerol; 25 fmol probe, 6 ug protein, 1 ug poly(dI-dC) in 20 ul, room temperature 20 min; 6.5% native PAGE in TGE pH 8.3. To be noted: protein: recombinant; tags: GST; chain copies: 2; blunt.

B1: HB33 promoter probe (dsDNA)
DNA 1: CCAAATTGTCTCTTATAATCCGATCTCAAAGGTTGGCTTGTTGGGAGCACTGAGACATCAAAC
DNA 2: GTTTGATGTCTCAGTGCTCCCAACAAGCCAACCTTTGAGATCGGATTATAAGAGACAATTTGG
For the molecule B1, the binding result is reported as “binds”.

B2: HB33 promoter mProbe (mP) (dsDNA)
DNA 1: CCAAATTGACACTTATAATCCGATCTCAAAGGTTGGCTTGTTGGGAGCACTGTGTCATCAAAC
DNA 2: GTTTGATGACACAGTGCTCCCAACAAGCCAACCTTTGAGATCGGATTATAAGTGTCAATTTGG
As for B2, the binding result is reported as “no binding”.
